# Experimental data: paper doi:10.1101/2022.06.10.495428
# Columns and labels:
# [1] = target: Influenza A/Zhejiang/DTID-ZJU01/2013 (H7N9) polymerase heterotrimer (influenza A/Zhejiang/DTID-ZJU01/2013 (H7N9)) (UniProt M9TI86); experiment: SEC-MALS
# [2] = target: Influenza A/Zhejiang/DTID-ZJU01/2013 (H7N9) polymerase heterotrimer (influenza A/Zhejiang/DTID-ZJU01/2013 (H7N9)) (UniProt M9TI86); experiment: cryo-EM structure
substance,measurement,setting,value
Influenza A/Zhejiang/DTID-ZJU01/2013 (H7N9) polymerase heterotrimer (from UniProt M9TI86;M9TLW3;X5F427) (complex),stoichiometry N,[1],2
same,stoichiometry N,[2],2
